Target: T1, human TLR4 (Homo sapiens, UniProt O00206)
T1 construct: expressed in transfected cells; host or cells: HEK 293 (gift from Dr. Michael Fessler, NIEHS)
Test: IL-8 production by ELISA in HEK TLR4-MD2-CD14 cells
Assay type: cell-based
Settings: HS pre-treated with heparanase
Method: HEK cell lines stably expressing CD14 and MD2 alone (HEK MD2-CD14), or co-expressed with human TLR2 (HEK TLR2-MD2-CD14) or human TLR4 (HEK TLR4-MD2-CD14) were transfected with a plasmid encoding firefly luciferase (F) under control of the NF-κB promoter along with a plasmid expressing Renilla luciferase (R) under control of the thymidine kinase promoter as a transfection control. Cell lines were cultured for 6 hours with media alone, LPS (100 ng/mL), HS (100 μg/mL), or Pam3CSK4 (2 μg/mL). […] FIG. 5B is a graph showing results supernatants analyzed for IL-8 production by ELISA. […] Experiments were performed in triplicate or quadruplicate. Results are representative of two to three independent experiments.
HEK 293 cell lines co-expressing human CD14, MD2 and TLR4 or TLR2 were a kind gift from Dr. Michael Fessler (NIEHS, Research Triangle Park, N.C., USA). […]
Thus, to determine whether if TLR4 was sufficient for HS activity, the ability of HS to activate human epithelial kidney (HEK) cell lines stably transfected to express human TLR4 or human TLR2 in addition to the co-receptors CD14 and MD2 was tested. […] The ratio of luminescence produced by firefly luciferase to Renilla luciferase (F/R) was then measured in response to media alone, LPS, HS, and Pam3CSK4. The production of IL-8, which is downstream of NF-κB activation, by ELISA was also measured. […]

T1 sequence (O00206 24-839): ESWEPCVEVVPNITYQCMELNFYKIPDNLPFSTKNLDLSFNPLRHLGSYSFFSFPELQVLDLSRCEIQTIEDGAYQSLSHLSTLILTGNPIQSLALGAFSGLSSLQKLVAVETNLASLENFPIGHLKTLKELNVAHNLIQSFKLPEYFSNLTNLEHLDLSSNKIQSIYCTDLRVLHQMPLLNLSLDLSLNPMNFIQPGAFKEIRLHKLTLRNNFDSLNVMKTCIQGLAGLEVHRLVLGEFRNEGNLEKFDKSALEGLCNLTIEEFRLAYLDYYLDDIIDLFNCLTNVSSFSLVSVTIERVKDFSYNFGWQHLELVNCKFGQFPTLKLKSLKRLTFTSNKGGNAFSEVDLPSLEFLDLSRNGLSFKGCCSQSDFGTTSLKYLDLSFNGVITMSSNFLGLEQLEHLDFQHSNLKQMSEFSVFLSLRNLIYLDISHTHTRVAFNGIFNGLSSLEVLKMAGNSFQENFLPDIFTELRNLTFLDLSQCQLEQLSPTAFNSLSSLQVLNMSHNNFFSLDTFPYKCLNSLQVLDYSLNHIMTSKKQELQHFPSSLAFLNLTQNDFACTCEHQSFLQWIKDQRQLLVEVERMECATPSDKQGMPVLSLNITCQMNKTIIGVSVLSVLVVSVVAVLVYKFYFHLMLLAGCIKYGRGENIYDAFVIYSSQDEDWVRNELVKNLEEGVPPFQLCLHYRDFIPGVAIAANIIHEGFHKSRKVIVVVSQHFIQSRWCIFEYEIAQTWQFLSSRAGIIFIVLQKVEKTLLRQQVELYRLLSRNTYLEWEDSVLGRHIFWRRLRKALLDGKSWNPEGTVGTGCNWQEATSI
T1 sequence (Q9Y6Y9 17-160 partner limits assumed): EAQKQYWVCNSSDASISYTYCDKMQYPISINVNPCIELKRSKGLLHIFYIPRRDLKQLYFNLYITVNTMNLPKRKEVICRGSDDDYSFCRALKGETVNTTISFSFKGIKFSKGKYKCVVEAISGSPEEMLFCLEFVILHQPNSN

B1: Heparanase: heparinase III from Flavobacterium heparinum (Sigma), enzyme that degrades heparan sulfate (protein, UniProt Q59289 25-659, looked up)
Heparin-sulfate lyase: QSSSITRKDFDHINLEYSGLEKVNKAVAAGNYDDAAKALLAYYREKSKAREPDFSNAEKPADIRQPIDKVTREMADKALVHQFQPHKGYGYFDYGKDINWQMWPVKDNEVRWQLHRVKWWQAMALVYHATGDEKYAREWVYQYSDWARKNPLGLSQDNDKFVWRPLEVSDRVQSLPPTFSLFVNSPAFTPAFLMEFLNSYHQQADYLSTHYAEQGNHRLFEAQRNLFAGVSFPEFKDSPRWRQTGISVLNTEIKKQVYADGMQFELSPIYHVAAIDIFLKAYGSAKRVNLEKEFPQSYVQTVENMIMALISISLPDYNTPMFGDSWITDKNFRMAQFASWARVFPANQAIKYFATDGKQGKAPNFLSKALSNAGFYTFRSGWDKNATVMVLKASPPGEFHAQPDNGTFELFIKGRNFTPDAGVFVYSGDEAIMKLRNWYRQTRIHSTLTLDNQNMVITKARQNKWETGNNLDVLTYTNPSYPNLDHQRSVLFINKKYFLVIDRAIGEATGNLGVHWQLKEDSNPVFDKTKNRVYTTYRDGNNLMIQSLNADRTSLNEEEGKVSYVYNKELKRPAFVFEKPKKNAGTQNFVSIVYPYDGQKAPEISIRENKGNDFEKGKLNLTLTINGKQQLVLVP
effect of pre-treatment on HS stimulation of IL-8 expression: significantly reduced

Reference: patent US20160109459A1, “Compositions And Methods For Heparan Sulfate As A Biomarker For Transplant Rejection” (Duke University, priority 2012, published 2016)
